The target in one series is T1, MfGM35E (Candidatus Methylacidiphilum fumarolicum, UniProt A0ABM9IGG7).
T1 construct: gene MFUM_2356; codon-optimized gene in pET21 (NdeI/XhoI), C-terminal His6-tag kept, E. coli BL21(DE3), Ni-NTA, about 37 kDa
Description: specific activity with added NAD+, HPAEC-PAD. In kind it is biochemical. The settings on record: 2 mM GDP-Man, 100 mM MOPS pH 7.5, 50 °C; independent of added NAD+ concentration.

Substrate in series [1]: Nc1nc2c(ncn2[C@@H]2O[C@H](COP(=O)(O)OP(=O)(O)O[C@H]3O[C@H](CO)[C@@H](O)[C@H](O)[C@@H]3O)[C@@H](O)[C@H]2O)c(=O)[nH]1
Description: initial rate of GDP-L-galactose formation, HPAEC-PAD, Michaelis-Menten fit. The settings on record: 100 mM MOPS pH 7, 60 °C, 20-2000 µM substrate. In kind it is biochemical, Candidatus Methylacidiphilum fumarolicum.

What is called Km is the substrate concentration at which the rate is half of its maximum. The kcat is the maximal rate divided by the concentration of active sites.

For `NC(=O)c1ccc[n+]([C@@H]2O[C@H](COP(=O)(O)OP(=O)(O)OC[C@H]3O[C@@H](n4cnc5c(N)ncnc54)[C@H](O)[C@@H]3O)[C@@H](O)[C@H]2O)c1` [NAD^+], at MfGM35E, the “% increase in activity” value came to 65%.

B1: MfGM35E (Candidatus Methylacidiphilum fumarolicum) (protein)
chain: MKKALVAGAGGFIGHHLVNFLKEKGYWVRGVDIKEPEYEKSRSDEFYLLDLRYWGNCLEATKGVDEVYQLAADMGGIGYISGNHAEIAKNNILINTHMLEASYQNGVKRYFYSSSACIYPSYRQQSVDVIPLKEEDAMPADPEEGYGWEKLFAEKLCQYYQEDKGIETRIARFHNVYGPLGTYKGGREKAPAAICRKIALAEDSSEIEVWGDGKQTRSFLYIQDCVEGIYLITQSDYPKPLNLGSEELVTIDQLVEMTAKVANKNIRIRHNLSKPQGVRGRNSDNSKLYKITGWRPKFPLLEGLKLTYPWIAERVARERNMQGCQ
notes: codon-optimized gene in pET21 (NdeI/XhoI), C-terminal His6-tag kept, E. coli BL21(DE3), Ni-NTA, about 37 kDa
Regarding B1, in series [1], the Km came out at 98 µM and the kcat stood at 0.2 s⁻¹.

Source of the values: publication PMC6678494, “Characterization of the First Bacterial and Thermostable GDP-Mannose 3,5-Epimerase” (International Journal of Molecular Sciences, 2019).
